Molecular target: monoclonal antibody MV-001
Test: ELISA, peptide-BSA coated, MV-001
Settings: not given

Row | Binder | Binding Capacity (code (weak binding, OD halfmax 1:<4000))
1 | HEPLFSHC [p4719] | 1
2 | EDWFFWHC [p4709] | 1

Second part, the binder after the results:

Row | Binding Capacity (code (weak binding, OD halfmax 1:<4000)) | Binder
3 | 1 | QPNLFYHC [p4713]
4 | 1 | QELKRYYC [p4724]
5 | 1 | TPLMFWHC [p4733]

Same assay, conditions: scale: code

Row | Binder | Binding Capacity
6 | TGLMFKHC [p4736] | 2
7 | LHIPFRHC [p4726] | 3
8 | APMYFPHC [p4717] | 2
9 | MLPFRHGC [p4731] | 2
10 | AANYFPRC [p4706] | 2
11 | SEFSHSSC [p4712] | 3
12 | LQFKHSTC [p4734] | 2
13 | YSMRHDAC [p4705] | 2
14 | EFLRHTLC [p4722] | 3
15 | SLMRHSSC [p4721] | 2
16 | SAMRHSLC [p4732] | 2
17 | ATPLFRHC [p4723] | 3
18 | ELFKHHLC [p4714] | 3
19 | TYFSHSLC [p4718] | 2
20 | ATFRHSPC [p4716] | 2

Other lines, results leading:

Row | Binding Capacity | Binder
21 | 2 | VELRHSRC [p4704]
22 | 3 | NELRHSTC [p4701]
23 | 2 | DTYFPRSC [p4703]
24 | 2 | SSSFFPRC [p4708]
25 | 3 | GEMRHQPC [p4702]
26 | 2 | SQYFPRPC [p4729]
27 | 2 | ATFRHSTC [p4735]
28 | 2 | QVMRHHAC [p4711]
29 | 2 | NELFKHFC [p4727]
30 | 3 | SAGSFRHC [p4710]
